In the supplement of paper PMC10126150:
± gives the standard deviation of the averaged measurements.

System: ATP
Assay: switch fluorescence ratio, 500 uM ATP over buffer (Cy3 cluster intensity, sum of 5 cycles each) (fold (ratio)); higher = stronger signal-on switching upon ATP binding; sequences stand for … in TCGTCGGCAGCGTCAGATGTGTATAAGAGACAGTTTTTTTTTTTTTTTTTTTTTTTTT…TC
Conditions: aptamer strand: ATP DNA aptamer (quencher-CACCTGGGGGAGTATTGCGGAGGAAGG + anchor), 100 nM annealed; ATP concentration: 500 uM
Procedure, shortened: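 Clusters carrying Cy3-labelled switching strands on a modified Illumina MiSeq flow-cell were annealed to 100 nM quencher-labelled ATP aptamer and imaged in selection buffer. They were imaged again after 15 min with 500 uM ATP at 22 °C, over five buffer/ATP cycles with NaOH stripping and re-annealing in between. For each cluster, the fluorescence ratio is the summed Cy3 intensity of the target cycles divided by that of the buffer cycles, averaged per switch-domain sequence. Clusters outside 100-1000 RFU were left out.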
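Also: ATP exposure 15 min at 22 °C before imaging.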

Row | Sequence | switch fluorescence ratio
1 | GTGGGGGGGC | 0.989 ± 0.032
2 | GTGGGGGGTA | 1 ± 0.031
3 | GTGGGGGGTT | 0.993 ± 0.026
4 | GTGGGGGTCT | 0.972 ± 0.013
5 | GTGGGGTAGT | 0.995 ± 0.018
6 | GTGGGGTATG | 0.977 ± 0.032
7 | GTGGGGTTGT | 0.973 ± 0.022
8 | GTGGGGTTTG | 1.01 ± 0.041
9 | GTGGGTGAC | 0.977 ± 0.049
10 | GTGGGTTGTT | 0.9719 ± 0.005
11 | GTGGTAAGGG | 0.972 ± 0.034
12 | GTGGTAATGG | 0.953 ± 0.021
13 | GTGGTAGCAC | 1.01 ± 0.025
14 | GTGGTAGGTA | 0.998 ± 0.021
15 | GTGGTAGGTT | 0.981 ± 0.027
16 | GTGGTATGTG | 0.95 ± 0.045
17 | GTGGTCGGGA | 1.09 ± 0.15
18 | GTGGTGCTTA | 0.996 ± 0.032
19 | GTGGTGGTGG | 0.996 ± 0.023
20 | GTGGTTACAG | 1.02 ± 0.011
21 | GTGGTTAGCA | 0.9712 ± 0.0065
22 | GTGGTTGGGT | 0.979 ± 0.023
23 | GTGGTTGTAT | 0.974 ± 0.015
24 | GTGGTTGTCG | 0.983 ± 0.015
25 | GTGGTTGTTT | 1.01 ± 0.049
26 | GTGTAAATAG | 1.01 ± 0.025

Row | Sequence | switch fluorescence ratio
27 | GTGTAAATCT | 1.036 ± 0.0046
28 | GTGTAAGTA | 0.9702 ± 0.0042
29 | GTGTACAAAT | 0.9896 ± 0.0041
30 | GTGTACGTGG | 1.008 ± 0.0057
31 | GTGTAGAGGG | 1 ± 0.048
32 | GTGTATGGAT | 1.023 ± 0.0066
33 | GTGTATGTTT | 1.01 ± 0.028
34 | GTGTCATAGT | 0.9923 ± 0.0016
35 | GTGTCCCTC | 1.01 ± 0.04
36 | GTGTCCTTGG | 1.006 ± 0.0084
37 | GTGTCGCGGG | 0.962 ± 0.013
38 | GTGTCGTTTG | 1 ± 0.032
39 | GTGTCTGTTG | 0.981 ± 0.02
40 | GTGTGACAAC | 0.975 ± 0.013
41 | GTGTGCCGCA | 0.977 ± 0.031
42 | GTGTGCGGGG | 1.06 ± 0.079
43 | GTGTGGAGGA | 1.03 ± 0.037
44 | GTGTGGCACT | 0.9989 ± 0.0056
45 | GTGTGGCGGG | 0.996 ± 0.011
46 | GTGTGGCTGG | 0.9398 ± 0.0088
47 | GTGTGGGAGC | 1 ± 0.06
48 | GTGTGGGTTC | 0.982 ± 0.012
49 | GTGTGTGTAA | 1.01 ± 0.045
50 | GTGTGTTTGT | 0.955 ± 0.038
51 | GTGTTAAAAT | 1.01 ± 0.018
52 | GTGTTACTTT | 0.99 ± 0.017

Row | Sequence | switch fluorescence ratio
53 | GTGTTAGAT | 0.964 ± 0.043
54 | GTGTTAGGGT | 0.984 ± 0.035
55 | GTGTTATGTG | 0.9504 ± 0.0021
56 | GTGTTCGCTT | 0.984 ± 0.0099
57 | GTGTTCGGGG | 0.998 ± 0.021
58 | GTGTTCTCGC | 0.999 ± 0.05
59 | GTGTTGGTAT | 1.01 ± 0.034
60 | GTGTTGTTGC | 0.981 ± 0.0012
61 | GTGTTGTTGT | 0.998 ± 0.016
62 | GTGTTTAAGT | 0.962 ± 0.014
63 | GTGTTTAATT | 1.03 ± 0.035
64 | GTGTTTAGGA | 1.02 ± 0.018
65 | GTGTTTAGGG | 0.999 ± 0.021
66 | GTGTTTGGCT | 0.972 ± 0.024
67 | GTGTTTGTCA | 0.981 ± 0.017
68 | GTTAAAAGGG | 1.01 ± 0.028
69 | GTTAAAGATA | 0.9918 ± 0.00016
70 | GTTAAATGGT | 1 ± 0.031
71 | GTTAACAGTT | 0.989 ± 0.027
72 | GTTAACCAGC | 1.05 ± 0.016
73 | GTTAACGGGT | 0.997 ± 0.02
74 | GTTAACTAAT | 1.57 ± 0.85
75 | GTTAAGGGGA | 0.999 ± 0.021
76 | GTTAATACCC | 1.04 ± 0.014
77 | GTTAATAGTG | 0.988 ± 0.021
78 | GTTAATCTTA | 0.9873 ± 0.0036

Row | Sequence | switch fluorescence ratio
79 | GTTAATTAGC | 1.03 ± 0.041
80 | GTTACAGAGA | 1.003 ± 0.0011
81 | GTTACGTTAT | 1.13 ± 0.078
82 | GTTACTGGCC | 1.01 ± 0.0068
83 | GTTACTTAGC | 1.04 ± 0.082
84 | GTTAGAAGGG | 0.978 ± 0.023
85 | GTTAGAGGGA | 0.99589 ± 4.1e-05
86 | GTTAGCAAGG | 1.08 ± 0.018
87 | GTTAGCAGGG | 1.01 ± 0.044
88 | GTTAGCTAAT | 0.987 ± 0.034
89 | GTTAGGGGCA | 1 ± 0.072
90 | GTTAGGGTAT | 0.9975 ± 0.004
91 | GTTAGGTGGC | 0.931 ± 0.021
92 | GTTAGTACGG | 0.9819 ± 0.0036
93 | GTTAGTAGCT | 0.97 ± 0.013
94 | GTTAGTGCGA | 1.01 ± 0.037
95 | GTTAGTGGCT | 0.9906 ± 0.0034
96 | GTTAGTTAGG | 0.976 ± 0.025
97 | GTTATAATCC | 1.037 ± 0.0076
98 | GTTATACGGT | 0.997 ± 0.057
99 | GTTATAGAGG | 1.03 ± 0.042
100 | GTTATAGCGG | 0.976 ± 0.018
101 | GTTATAGCTA | 0.9859 ± 0.0061
102 | GTTATATCGC | 0.985 ± 0.03
103 | GTTATATGGT | 1.02 ± 0.021
104 | GTTATATTGA | 0.999 ± 0.026

Row | Sequence | switch fluorescence ratio
105 | GTTATATTGT | 0.9943 ± 0.0096
106 | GTTATCATTA | 1.02 ± 0.03
107 | GTTATCGAGG | 1.02 ± 0.011
108 | GTTATCTCTT | 0.996 ± 0.033
109 | GTTATGTCTG | 1.03 ± 0.065
110 | GTTATGTTTG | 1.01 ± 0.045
111 | GTTATTAGTG | 0.993 ± 0.016
112 | GTTATTCGGT | 0.991 ± 0.023
113 | GTTATTGCGT | 0.982 ± 0.05
114 | GTTATTGGGT | 0.988 ± 0.046
115 | GTTATTTAGT | 0.967 ± 0.05
116 | GTTATTTGGA | 0.971 ± 0.069
117 | GTTATTTGGT | 0.992 ± 0.04
118 | GTTATTTTTT | 0.987 ± 0.028
119 | GTTCAAATGA | 0.987 ± 0.017
120 | GTTCAAGGAA | 0.9937 ± 0.0036
121 | GTTCCGGGGA | 1.02 ± 0.016
122 | GTTCCGGTCG | 1.07 ± 0.098
123 | GTTCCTGGGG | 1.03 ± 0.019
124 | GTTCCTTTTT | 1.02 ± 0.064
125 | GTTCGTGATA | 1.05 ± 0.043
126 | GTTCTAGATT | 1.03 ± 0.067
127 | GTTCTAGGAG | 1 ± 0.019
128 | GTTCTAGGTT | 0.9961 ± 0.0044
129 | GTTCTATGC | 1 ± 0.079
130 | GTTCTCAGAT | 0.982 ± 0.013

Row | Sequence | switch fluorescence ratio
131 | GTTCTGGGCT | 0.973 ± 0.016
132 | GTTCTGGGGC | 0.986 ± 0.028
133 | GTTGAAACGT | 1.06 ± 0.023
134 | GTTGAAGG | 0.9986 ± 0.0032
135 | GTTGAATGGG | 0.977 ± 0.011
136 | GTTGAGAGGA | 0.9636 ± 0.0018
137 | GTTGAGAGTT | 1.01 ± 0.015
138 | GTTGAGGAGG | 0.9891 ± 0.0086
139 | GTTGATCCTT | 0.9987 ± 0.0075
140 | GTTGATCTGG | 1.01 ± 0.011
141 | GTTGATTAGC | 0.981 ± 0.077
142 | GTTGATTATG | 0.995 ± 0.014
143 | GTTGCAGCTG | 0.962 ± 0.037
144 | GTTGCAGTTA | 0.9986 ± 0.0029
145 | GTTGCATTAT | 1.028 ± 0.0041
146 | GTTGCCAAAG | 0.9726 ± 0.0022
147 | GTTGCGAATT | 0.971 ± 0.038
148 | GTTGCGCACA | 1.024 ± 0.0097
149 | GTTGCTGTTT | 1 ± 0.048
150 | GTTGGAAACA | 0.945 ± 0.01
151 | GTTGGAAGCA | 1.1 ± 0.18
152 | GTTGGAATGG | 1.01 ± 0.014
153 | GTTGGAGGGA | 1.01 ± 0.032
